Consider two variants from PMC5702604 (2017).

B1: Piezo1-GST fusion protein (mouse Piezo1) [mouse] / Flag-tagged SERCA2 (SERCA2b) [not stated] (parent complex)
chain 1: MEPHVLGAGLYWLLLPCTLLAASLLRFNALSLVYLLFLLLLPWLPGPSRHSIPGHTGRLLRALLCLSLLFLVAHLAFQICLHTVPHLDQFLGQNGSLWVKVSQHIGVTRLDLKDIFNTTRLVAPDLGVLLASSLCLGLCGRLTRKAGQSRRTQELQDDDDDDDDDDEDIDAAPAVGLKGAPALATKRRLWLASRFRVTAHWLLMTSGRTLVIVLLALAGIAHPSAFSSIYLVVFLAICTWWSCHFPLSPLGFNTLCVMVSCFGAGHLICLYCYQTPFIQDMLPPGNIWARLFGLKNFVDLPNYSSPNALVLNTKHAWPIYVSPGILLLLYYTATSLLKLHKSCPSELRKETPREDEEHELELDHLEPEPQARDATQGEMPMTTEPDLDNCTVHVLTSQSPVRQRPVRPRLAELKEMSPLHGLGHLIMDQSYVCALIAMMVWSIMYHSWLTFVLLLWACLIWTVRSRHQLAMLCSPCILLYGLTLCCLRYVWAMELPELPTTLGPVSLHQLGLEHTRYPCLDLGAMLLYLLTFWLLLRQFVKEKLLKKQKVPAALLEVTVADTEPTQTQTLLRSLGELVTGIYVKYWIYVCAGMFIVVSFAGRLVVYKIVYMFLFLLCLTLFQVYYTLWRKLLRVFWWLVVAYTMLVLIAVYTFQFQDFPTYWRNLTGFTDEQLGDLGLEQFSVSELFSSILIPGFFLLACILQLHYFHRPFMQLTDLEHVPPPGTRHPRWAHRQDAVSEAPLLEHQEEEEVFREDGQSMDGPHQATQVPEGTASKWGLVADRLLDLAASFSAVLTRIQVFVRRLLELHVFKLVALYTVWVALKEVSVMNLLLVVLWAFALPYPRFRPMASCLSTVWTCIIIVCKMLYQLKIVNPHEYSSNCTEPFPNNTNLQPLEINQSLLYRGPVDPANWFGVRKGYPNLGYIQNHLQILLLLVFEAVVYRRQEHYRRQHQQAPLPAQAVCADGTRQRLDQDLLSCLKYFINFFFYKFGLEICFLMAVNVIGQRMNFMVILHGCWLVAILTRRRREAIARLWPNYCLFLTLFLLYQYLLCLGMPPALCIDYPWRWSKAIPMNSALIKWLYLPDFFRAPNSTNLISDFLLLLCASQQWQVFSAERTEEWQRMAGINTDHLEPLRGEPNPIPNFIHCRSYLDMLKVAVFRYLFWLVLVVVFVAGATRISIFGLGYLLACFYLLLFGTTLLQKDTRAQLVLWDCLILYNVTVIISKNMLSLLSCVFVEQMQSNFCWVIQLFSLVCTVKGYYDPKEMMTRDRDCLLPVEEAGIIWDSICFFFLLLQRRIFLSHYFLHVSADLKATALQASRGFALYNAANLKSINFHRQIEEKSLAQLKRQMKRIRAKQEKYRQSQASRGQLQSKDPQDPSQEPGPDSPGGSSPPRRQWWRPWLDHATVIHSGDYFLFESDSEEEEEALPEDPRPAAQSAFQMAYQAWVTNAQTVLRQRRERARQERAEQLASGGDLNPDVEPVDVPEDEMAGRSHMMQRVLSTMQFLWVLGQATVDGLTRWLRAFTKHHRTMSDVLCAERYLLTQELLRVGEVRRGVLDQLYVGEDEATLSGPVETRDGPSTASSGLGAEEPLSSMTDDTSSPLSTGYNTRSGSEEIVTDAGDLQAGTSLHGSQELLANARTRMRTASELLLDRRLHIPELEEAERFEAQQGRTLRLLRAGYQCVAAHSELLCYFIIILNHMVTASAASLVLPVLVFLWAMLTIPRPSKRFWMTAIVFTEVMVVTKYLFQFGFFPWNSYVVLRRYENKPYFPPRILGLEKTDSYIKYDLVQLMALFFHRSQLLCYGLWDHEEDRYPKDHCRSSVKDREAKEEPEAKLESQSETGTGHPKEPVLAGTPRDHIQGKGSIRSKDVIQDPPEDLKPRHTRHISIRFRRRKETPGPKGTAVMETEHEEGEGKETTERKRPRHTQEKSKFRERMKAAGRRLQSFCVSLAQSFYQPLQRFFHDILHTKYRAATDVYALMFLADIVDIIIIIFGFWAFGKHSAATDIASSLSDDQVPQAFLFMLLVQFGTMVIDRALYLRKTVLGKLAFQVVLVVAIHIWMFFILPAVTERMFSQNAVAQLWYFVKCIYFALSAYQIRCGYPTRILGNFLTKKYNHLNLFLFQGFRLVPFLVELRAVMDWVWTDTTLSLSNWMCVEDIYANIFIIKCSRETEKKYPQPKGQKKKKIVKYGMGGLIILFLIAIIWFPLLFMSLIRSVVGVVNQPIDVTVTLKLGGYEPLFTMSAQQPSIVPFTPQAYEELSQQFDPYPLAMQFISQYSPEDIVTAQIEGSSGALWRISPPSRAQMKQELYNGTADITLRFTWNFQRDLAKGGTVEYTNEKHTLELAPNSTARRQLAQLLEGRPDQSVVIPHLFPKYIRAPNGPEANPVKQLQPDEEEDYLGVRIQLRREQVGTGASGEQAGTKASDFLEWWVIELQDCKADCNLLPMVIFSDKVSPPSLGFLAGYGIVGLYVSIVLVVGKFVRGFFSEISHSIMFEELPCVDRILKLCQDIFLVRETRELELEEELYAKLIFLYRSPETMIKWTRERE
chain 2: MENAHTKTVEEVLGHFGVNESTGLSLEQVKKLKERWGSNELPAEEGKTLLELVIEQFEDLLVRILLLAACISFVLAWFEEGEETITAFVEPFVILLILVANAIVGVWQERNAENAIEALKEYEPEMGKVYRQDRKSVQRIKAKDIVPGDIVEIAVGDKVPADIRLTSIKSTTLRVDQSILTGESVSVIKHTDPVPDPRAVNQDKKNMLFSGTNIAAGKAMGVVVATGVNTEIGKIRDEMVATEQERTPLQQKLDEFGEQLSKVISLICIAVWIINIGHFNDPVHGGSWIRGAIYYFKIAVALAVAAIPEGLPAVITTCLALGTRRMAKKNAIVRSLPSVETLGCTSVICSDKTGTLTTNQMSVCRMFILDRVEGDTCSLNEFTITGSTYAPIGEVHKDDKPVNCHQYDGLVELATICALCNDSALDYNEAKGVYEKVGEATETALTCLVEKMNVFDTELKGLSKIERANACNSVIKQLMKKEFTLEFSRDRKSMSVYCTPNKPSRTSMSKMFVKGAPEGVIDRCTHIRVGSTKVPMTSGVKQKIMSVIREWGSGSDTLRCLALATHDNPLRREEMHLEDSANFIKYETNLTFVGCVGMLDPPRIEVASSVKLCRQAGIRVIMITGDNKGTAVAICRRIGIFGQDEDVTSKAFTGREFDELNPSAQRDACLNARCFARVEPSHKSKIVEFLQSFDEITAMTGDGVNDAPALKKAEIGIAMGSGTAVAKTASEMVLADDNFSTIVAAVEEGRAIYNNMKQFIRYLISSNVGEVVCIFLTAALGFPEALIPVQLLWVNLVTDGLPATALGFNPPDLDIMNKPPRNPKEPLISGWLFFRYLAIGCYVGAATVGAAAWWFIAADGGPRVSFYQLSHFLQCKEDNPDFEGVDCAIFESPYPMTMALSVLVTIEMCNALNSLSENQSLLRMPPWENIWLVGSICLSMSLHFLILYVEPLPLIFQITPLNVTQWLMVLKISLPVILMDETLKFVARNYLEPGKECVQPATKSCSFSACTDGISWPFVLLIMPLVIWVYSTDTNFSDMFWS

The assay covers variants of B1. Kind of assay: GST pull-down, western blot quantification; co-expressed Flag-SERCA2; repeated 3 times; mean ± s.e.m.; parent: 1; read off a plot. In general terms: Immunoblotting shows a protein as a band on a membrane.
With chain 1 K2182A, chain 1 K2183A, chain 1 K2184A, chain 1 K2185A, the ratio to parent is about 0.3.

As to chain 1 E2172A, chain 1 K2173A, chain 1 K2174A, chain 1 Y2175A, chain 1 P2176A, chain 1 Q2177A, chain 1 P2178A, chain 1 K2179A, chain 1 G2180A, chain 1 Q2181A, the ratio to parent was about 0.4.
